T1: PRAME peptide on HLA-A*02:02 (human)
T1 peptide: SLLQHLIGL

T2: PRAME peptide on HLA-A*02:04 (human)
T2 peptide: SLLQHLIGL

T3: irrelevant peptide peptide on HLA-A*02:01 (human)
T3 peptide: GLSNTHVL

T4: PRAME peptide on HLA-A*02:01 (human)
T4 peptide: SLLQHLIGL


Key:
[1] = target: PRAME peptide … presented by the HLA-A*02:01-encoded molecule (human); test: cell-based or functional assay
[2] = target: T1, PRAME peptide on HLA-A*02:02; test: cytokine release
[3] = target: T2, PRAME peptide on HLA-A*02:04; test: cytokine release
[4] = target: T3, irrelevant peptide peptide on …; test: cytokine release
[5] = target: T4, PRAME peptide on HLA-A*02:01; test: IFN-gamma immunoassay; general statement of the description and claim 4; the same paragraph says preferably less than 10^-8 M (FIG. 2); full-length, on cells

Row | EC50 value of the relative IFN-gamma release (peptide concentration on T2 cells) [1] | binding result [2] | binding result [3] | binding result [4] | EC50 of peptide [5] | Binder
1 | 11.6 nM |  |  |  |  | TCR T23.8-2.1-027-004 (TCR, V domains shown) V domain 1: GQQLNQSPQSMFIQEGEDVSMNCTSSSIFNTWLWYKQDPGEGPVLLIALYKAGELTSNGRLTAQFGITRKDSFLNISASIPSDVGIYFCAGLADYGGSQGNLIFGKGTKLSVKP V domain 2: DSGVTQTPKHLITATGQRVTLRCSPRSGDLSVYWYQQSLDQGLQFLIQYYNGEERAKGNILERFSAQQFPDLHSELNLSSLELGDSALYFCASSVWASGGYEQYFGPGTRLTVTE
2 |  | recognises | recognises | no recognition | < 100 nM | TCR T23.8-2.1-027-004 (TCR, V domains shown) Valpha: GQQLNQSPQSMFIQEGEDVSMNCTSSSIFNTWLWYKQDPGEGPVLLIALYKAGELTSNGRLTAQFGITRKDSFLNISASIPSDVGIYFCAGLADYGGSQGNLIFGKGTKLSVKP Vbeta: DSGVTQTPKHLITATGQRVTLRCSPRSGDLSVYWYQQSLDQGLQFLIQYYNGEERAKGNILERFSAQQFPDLHSELNLSSLELGDSALYFCASSVWASGGYEQYFGPGTRLTVT
